Results published in patent publication US20230285583A1, “LIQUID FORMULATION OF LONG-ACTING CONJUGATE OF GLUCAGON, GLP-1, AND GIP TRIGONAL AGONIST” (HANMI PHARM, CO., LTD., priority 2020, published 2023).
Bridge positions count the residues as written; N and C are the ends. Square brackets hold non-standard residues; d marks the D form. Ends that are not written are not given here. * marks the point of attachment. Acetyl(2-(4-imidazolyl)) = O=C(Cc1c[nH]cn1)*; Aib = CC(C)(N)C(=O)O

T1: human GIP receptor (human, UniProt P48546 22-466)
T1 sequence (looked up): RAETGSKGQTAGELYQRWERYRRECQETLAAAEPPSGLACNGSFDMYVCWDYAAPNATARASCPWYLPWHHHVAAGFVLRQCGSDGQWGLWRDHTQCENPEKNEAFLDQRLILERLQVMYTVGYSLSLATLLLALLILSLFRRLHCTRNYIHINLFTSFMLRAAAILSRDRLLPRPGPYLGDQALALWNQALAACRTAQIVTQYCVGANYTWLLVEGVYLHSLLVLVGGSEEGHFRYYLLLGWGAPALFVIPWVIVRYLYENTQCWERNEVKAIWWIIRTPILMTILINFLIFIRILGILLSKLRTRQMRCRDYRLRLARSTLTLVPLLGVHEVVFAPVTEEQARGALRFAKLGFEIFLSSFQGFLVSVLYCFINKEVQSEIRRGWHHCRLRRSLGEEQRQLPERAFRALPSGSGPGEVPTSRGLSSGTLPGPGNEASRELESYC


The binders below were run against human GLP-1 receptor (human, UniProt P43220 24-463) (assay: cell-based or functional assay).
In the case of {Acetyl(2-(4-imidazolyl))}-[Aib]EGTFTSDYSIAMDEIHQKDFVNWLLAQC (lactam 15-19) [trigonal agonist of SEQ ID NO: 36], the “In Vitro Activity Compared to Native Peptide (%) vs. GLP-1 (relative titer from cAMP EC50)” value is reported as 47.3%.
Y[Aib]QGTFTSDYSKALDEKAAKEFVNWLLDHHPSSGQPPPSC (bridge 16-20; not fully specified (bridges)) [trigonal agonist of SEQ ID NO: 42] was tested, and the “In Vitro Activity Compared to Native Peptide (%) vs. GLP-1 (relative titer from cAMP EC50)” value was 28.1%.
Y[Aib]QGTFTSDYSKYLDECRAKEFVQWLLDHHPSSGQPPPS (bridge 16-20; not fully specified (bridges)) [trigonal agonist of SEQ ID NO: 1] was tested, and the “In Vitro Activity Compared to Native Peptide (%) vs. GLP-1 (relative titer from cAMP EC50)” value was 17.8%.
For [Acetyl(2-(4-imidazolyl))][Aib]QGTFTSDYSKYLDEKRQKEFVNWLLAQC (bridge 16-20; not fully specified (bridges)) [trigonal agonist of SEQ ID NO: 37], the “In Vitro Activity Compared to Native Peptide (%) vs. GLP-1 (relative titer from cAMP EC50)” value was 28.4%.
With H[Aib]QGTFTSDYSKYLDEKRQKEFVNWLLAQKC (bridge 16-20; not fully specified (bridges)) [trigonal agonist of SEQ ID NO: 6] the “In Vitro Activity Compared to Native Peptide (%) vs. GLP-1 (relative titer from cAMP EC50)” value was 19.1%.
H[Aib]QGTFTSDYSKYLDEKACKDFVQWLLDGGPSSGAPPPS (lactam 16-20) [trigonal agonist of SEQ ID NO: 5] was tested, and the “In Vitro Activity Compared to Native Peptide (%) vs. GLP-1 (relative titer from cAMP EC50)” value was 151%.
In the case of Y[Aib]QGTFTSDYSKALDEKAAKDFVNWLLDHHPSSGQPPPSC (bridge 16-20; not fully specified (bridges)) [trigonal agonist of SEQ ID NO: 43], the “In Vitro Activity Compared to Native Peptide (%) vs. GLP-1 (relative titer from cAMP EC50)” value is reported as 20.9%.
In the case of [Acetyl(2-(4-imidazolyl))][Aib]EGTFTSDYSIAMDEIHQKDFVDWLLAEKC (bridge 16-20; not fully specified (bridges)) [trigonal agonist of SEQ ID NO: 38], the “In Vitro Activity Compared to Native Peptide (%) vs. GLP-1 (relative titer from cAMP EC50)” value is reported as 31.9%.
With H[Aib]EGTFTSDYSIAMDEIHQKDFVDWLLAEKC (bridge 16-20; not fully specified (bridges)) [trigonal agonist of SEQ ID NO: 35] the “In Vitro Activity Compared to Native Peptide (%) vs. GLP-1 (relative titer from cAMP EC50)” value was 8.1%.
With Y[Aib]QGTFTSDYSKYLDEKRAKEFVQWLLDHCPSSGQPPPS (bridge 16-20; not fully specified (bridges); ends not checked) [trigonal agonist of SEQ ID NO: 40] the “In Vitro Activity Compared to Native Peptide (%) vs. GLP-1 (relative titer from cAMP EC50)” value was 34.4%.
For Y[Aib]QGTFTSDYSKYLDEKRAKEFVQWLLDHHPSSGQPPPSC (lactam 16-20) [trigonal agonist of SEQ ID NO: 9], the “In Vitro Activity Compared to Native Peptide (%) vs. GLP-1 (relative titer from cAMP EC50)” value was 33.9%.

Each binder was assayed against T1, human GIP receptor (assay: cell-based or functional assay).
For {Acetyl(2-(4-imidazolyl))}-[Aib]EGTFTSDYSIAMDEIHQKDFVNWLLAQC (lactam 15-19) [trigonal agonist of SEQ ID NO: 36], the “In Vitro Activity Compared to Native Peptide (%) vs. GIP (relative titer from cAMP EC50)” value was 0.4%.
For Y[Aib]QGTFTSDYSKALDEKAAKEFVNWLLDHHPSSGQPPPSC (bridge 16-20; not fully specified (bridges)) [trigonal agonist of SEQ ID NO: 42], the “In Vitro Activity Compared to Native Peptide (%) vs. GIP (relative titer from cAMP EC50)” value was 47.1%.
In the case of Y[Aib]QGTFTSDYSKYLDECRAKEFVQWLLDHHPSSGQPPPS (bridge 16-20; not fully specified (bridges)) [trigonal agonist of SEQ ID NO: 1], the “In Vitro Activity Compared to Native Peptide (%) vs. GIP (relative titer from cAMP EC50)” value is reported as 22.7%.
[Acetyl(2-(4-imidazolyl))][Aib]QGTFTSDYSKYLDEKRQKEFVNWLLAQC (bridge 16-20; not fully specified (bridges)) [trigonal agonist of SEQ ID NO: 37] was tested, and the “In Vitro Activity Compared to Native Peptide (%) vs. GIP (relative titer from cAMP EC50)” value was 0.2%.
H[Aib]QGTFTSDYSKYLDEKRQKEFVNWLLAQKC (bridge 16-20; not fully specified (bridges)) [trigonal agonist of SEQ ID NO: 6] was tested, and the “In Vitro Activity Compared to Native Peptide (%) vs. GIP (relative titer from cAMP EC50)” value was 0.6%.
In the case of H[Aib]QGTFTSDYSKYLDEKACKDFVQWLLDGGPSSGAPPPS (lactam 16-20) [trigonal agonist of SEQ ID NO: 5], the “In Vitro Activity Compared to Native Peptide (%) vs. GIP (relative titer from cAMP EC50)” value is reported as 8.8%.
For Y[Aib]QGTFTSDYSKALDEKAAKDFVNWLLDHHPSSGQPPPSC (bridge 16-20; not fully specified (bridges)) [trigonal agonist of SEQ ID NO: 43], the “In Vitro Activity Compared to Native Peptide (%) vs. GIP (relative titer from cAMP EC50)” value was 57.7%.
With [Acetyl(2-(4-imidazolyl))][Aib]EGTFTSDYSIAMDEIHQKDFVDWLLAEKC (bridge 16-20; not fully specified (bridges)) [trigonal agonist of SEQ ID NO: 38] the “In Vitro Activity Compared to Native Peptide (%) vs. GIP (relative titer from cAMP EC50)” value was 0.3%.
H[Aib]EGTFTSDYSIAMDEIHQKDFVDWLLAEKC (bridge 16-20; not fully specified (bridges)) [trigonal agonist of SEQ ID NO: 35] was tested, and the “In Vitro Activity Compared to Native Peptide (%) vs. GIP (relative titer from cAMP EC50)” value was 0.1%.
For Y[Aib]QGTFTSDYSKYLDEKRAKEFVQWLLDHCPSSGQPPPS (bridge 16-20; not fully specified (bridges); ends not checked) [trigonal agonist of SEQ ID NO: 40], the “In Vitro Activity Compared to Native Peptide (%) vs. GIP (relative titer from cAMP EC50)” value was 5.2%.
Y[Aib]QGTFTSDYSKYLDEKRAKEFVQWLLDHHPSSGQPPPSC (lactam 16-20) [trigonal agonist of SEQ ID NO: 9] was tested, and the “In Vitro Activity Compared to Native Peptide (%) vs. GIP (relative titer from cAMP EC50)” value was 7.8%.

These binders were tested against human GCG receptor (human, UniProt P47871 26-477) (assay: cell-based or functional assay).
Chain of human GCG receptor (P47871 26-477): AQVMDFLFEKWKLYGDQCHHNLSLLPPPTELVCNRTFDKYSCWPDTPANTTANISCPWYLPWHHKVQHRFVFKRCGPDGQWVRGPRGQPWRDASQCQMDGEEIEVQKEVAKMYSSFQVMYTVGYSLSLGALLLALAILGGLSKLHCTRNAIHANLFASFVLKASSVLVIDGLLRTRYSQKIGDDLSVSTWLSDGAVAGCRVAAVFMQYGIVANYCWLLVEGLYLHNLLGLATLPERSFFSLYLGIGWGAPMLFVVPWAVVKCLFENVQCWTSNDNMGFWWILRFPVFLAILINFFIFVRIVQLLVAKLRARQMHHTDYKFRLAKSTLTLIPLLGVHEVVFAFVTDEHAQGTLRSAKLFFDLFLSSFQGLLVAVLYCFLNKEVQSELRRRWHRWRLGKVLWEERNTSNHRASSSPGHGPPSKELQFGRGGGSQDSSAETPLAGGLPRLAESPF
In the case of {Acetyl(2-(4-imidazolyl))}-[Aib]EGTFTSDYSIAMDEIHQKDFVNWLLAQC (lactam 15-19) [trigonal agonist of SEQ ID NO: 36], the “In Vitro Activity Compared to Native Peptide (%) vs. Glucagon (relative titer from cAMP EC50)” value is reported as 1.3%.
Y[Aib]QGTFTSDYSKALDEKAAKEFVNWLLDHHPSSGQPPPSC (bridge 16-20; not fully specified (bridges)) [trigonal agonist of SEQ ID NO: 42] was tested, and the “In Vitro Activity Compared to Native Peptide (%) vs. Glucagon (relative titer from cAMP EC50)” value was 8.2%.
Y[Aib]QGTFTSDYSKYLDECRAKEFVQWLLDHHPSSGQPPPS (bridge 16-20; not fully specified (bridges)) [trigonal agonist of SEQ ID NO: 1] was tested, and the “In Vitro Activity Compared to Native Peptide (%) vs. Glucagon (relative titer from cAMP EC50)” value was 267%.
In the case of [Acetyl(2-(4-imidazolyl))][Aib]QGTFTSDYSKYLDEKRQKEFVNWLLAQC (bridge 16-20; not fully specified (bridges)) [trigonal agonist of SEQ ID NO: 37], the “In Vitro Activity Compared to Native Peptide (%) vs. Glucagon (relative titer from cAMP EC50)” value is reported as 0.4%.
With H[Aib]QGTFTSDYSKYLDEKRQKEFVNWLLAQKC (bridge 16-20; not fully specified (bridges)) [trigonal agonist of SEQ ID NO: 6] the “In Vitro Activity Compared to Native Peptide (%) vs. Glucagon (relative titer from cAMP EC50)” value was 0.92%.
In the case of H[Aib]QGTFTSDYSKYLDEKACKDFVQWLLDGGPSSGAPPPS (lactam 16-20) [trigonal agonist of SEQ ID NO: 5], the “In Vitro Activity Compared to Native Peptide (%) vs. Glucagon (relative titer from cAMP EC50)” value is reported as 1.7%.
Y[Aib]QGTFTSDYSKALDEKAAKDFVNWLLDHHPSSGQPPPSC (bridge 16-20; not fully specified (bridges)) [trigonal agonist of SEQ ID NO: 43] was tested, and the “In Vitro Activity Compared to Native Peptide (%) vs. Glucagon (relative titer from cAMP EC50)” value was 14.9%.
With [Acetyl(2-(4-imidazolyl))][Aib]EGTFTSDYSIAMDEIHQKDFVDWLLAEKC (bridge 16-20; not fully specified (bridges)) [trigonal agonist of SEQ ID NO: 38] the “In Vitro Activity Compared to Native Peptide (%) vs. Glucagon (relative titer from cAMP EC50)” value was 16.8%.
In the case of H[Aib]EGTFTSDYSIAMDEIHQKDFVDWLLAEKC (bridge 16-20; not fully specified (bridges)) [trigonal agonist of SEQ ID NO: 35], the “In Vitro Activity Compared to Native Peptide (%) vs. Glucagon (relative titer from cAMP EC50)” value is reported as 0%.
Y[Aib]QGTFTSDYSKYLDEKRAKEFVQWLLDHCPSSGQPPPS (bridge 16-20; not fully specified (bridges); ends not checked) [trigonal agonist of SEQ ID NO: 40] was tested, and the “In Vitro Activity Compared to Native Peptide (%) vs. Glucagon (relative titer from cAMP EC50)” value was 195%.
Y[Aib]QGTFTSDYSKYLDEKRAKEFVQWLLDHHPSSGQPPPSC (lactam 16-20) [trigonal agonist of SEQ ID NO: 9] was tested, and the “In Vitro Activity Compared to Native Peptide (%) vs. Glucagon (relative titer from cAMP EC50)” value was 206%.
